From patent publication US20220370565A1 (SHANGHAI INSTITUTE OF BIOLOGICAL PRODCCTS CO., LTD., priority 2019, published 2022)

Legend:
[1] = test system: human gastric cancer NCI-N87; assay: subcutaneous transplanted tumors of human gastric cancer NCI-N87 in nude mice; type: in vivo; settings: D 0, 3, 7, 10, 14, 17; for Mean tumor volume D 0 SEM: baseline at grouping
Procedure: (§1) The indicators of tumor inhibition experiments in mice were to investigate the effect of drugs on tumor growth, and the specific indicators were T/C % or the rate of tumor growth inhibition TGI (%).
(§2) The diameter of the tumor was measured with a vernier caliper twice a week, and the formula for calculating the tumor volume (V) was: V=½xaxb^2, wherein a and b represented the length and width, respectively.
(§3) T/C(%)=(T−T0)/(C−C0)×100,
(§4) If a tumor was smaller than the initial volume, i.e., T<T0 or C<C0, it was defined as partial regression (PR) of the tumor; if a tumor disappeared completely, it was defined as complete regression (CR) of the tumor.
(§5) At the end of the experiment (e.g., D21), reaching the experimental endpoint, or the tumor volume reached 1,500 mm^3, the animals were sacrificed after CO2 anesthesia, and then the tumors were dissected and photographed.
Nude mice were subcutaneously (SC) inoculated with 6×10^6 human gastric cancer NCI-N87 cells. After the tumor grew to 100-150 mm^3, the animals were grouped according to tumor volume (D0). Mice were administered subcutaneously (SC) or intravenously (IV), twice a week (BIW); the administration volume was 10 mL/kg; the solvent group was administered with the same volume of “solvent” (normal saline); specific dosage and administration regimen were shown in Table 1. The tumor volumes were measured twice a week, the mice were weighed, and the data were recorded.
(§6) Two-tailed Student's t-test was used to compare tumor volumes between the two groups, and P<0.05 was defined as a statistically significant difference.

human liver cancer Huh-7 = assay: subcutaneous transplanted tumors of human liver cancer Huh-7 in nude mice; type: in vivo; settings: for % T/C D 17 / Mean tumor volume D 17 SEM / Tumor inhibition rate % D 17 / Mean tumor volume D 0 SEM: D 0, 3, 7, 10, 14; for Mean tumor volume D 0 SEM: baseline at grouping
Procedure: as §1, §2, §3, §4, §5
Nude mice were subcutaneously inoculated with 6×10^6 human liver cancer Huh-7 cells. After the tumor grew to 100-150 mm^3, the animals were grouped according to tumor volume (D0). Mice were administered subcutaneously (SC) or intravenously (IV), twice a week (BIW); the administration volume was 10 mL/kg; the solvent group was administered with the same volume of “solvent” (normal saline); specific dosage and administration regimen were shown in Table 2. The tumor volumes were measured twice a week, the mice were weighed, and the data were recorded.
as §6

HepG2 = assay: SRB method, proliferation of tumor cells in vitro, HepG2; type: cell-based; settings: HepG2 (Liver cancer), 120 hours of drug action
Procedure: (§7) Sulfonyl rhodamine B protein staining method (SRB method) was used to evaluate the effects of using PEG-interferon alone or in combination with other drugs on the proliferation of tumor cells in vitro.
(§8) A certain number of cells in logarithmic growth phase were seeded in 96-well culture plates. After 24 hours of adherent growth, different concentrations (final concentrations of 1, 3, 10, 30, 100, 300, 1,000, 3,000, 10,000 nM) of drugs were added. After 120 hours of drug action, cells were fixed with trichloroacetic acid. Then stained with SRB solution; finally, Tris solution was added to dissolve SRB, and OD value was measured at a wavelength of 510 nm by a microplate reader.

Huh-7 = assay: SRB method, proliferation of tumor cells in vitro, Huh-7; type: cell-based, human; settings: Huh-7 (Liver cancer), 120 hours of drug action
Procedure: as §7, §8

A549 = assay: SRB method, proliferation of tumor cells in vitro, A549; type: cell-based; settings: A549 (Lung cancer), 120 hours of drug action
Procedure: as §7, §8

[2] = test system: human breast cancer BT-474; assay: subcutaneous transplanted tumors of human breast cancer BT-474 in nude mice; type: in vivo; settings: for % T/C D 20 / Mean tumor volume D 20 SEM / Tumor inhibition rate % D 20 / Mean tumor volume D 0 SEM: D 0, 3, 7, 10, 14, 17; for Mean tumor volume D 0 SEM: baseline at grouping
Procedure: as §1, §2, §3, §4, §5
Nude mice were subcutaneously inoculated with 1×10^7 human breast cancer BT-474 cells. After the tumor grew to 100-150 mm^3, the animals were grouped according to tumor volume (D0). Mice were administered subcutaneously (SC) or intravenously (IV), twice a week (BIW); the administration volume was 10 mL/kg; the solvent group was administered with the same volume of “solvent” (normal saline); specific dosage and administration regimen were shown in Table 3. The tumor volumes were measured twice a week, the mice were weighed, and the data were recorded.
as §6

half-life in rats = type: in vivo
MCF-7 = assay: SRB method, proliferation of tumor cells in vitro, MCF-7; type: cell-based; settings: MCF-7 (Breast cancer), 120 hours of drug action
Procedure: as §7, §8

[3] = half-life in cynomolgus monkeys; type: in vivo
HGC27 = assay: SRB method, proliferation of tumor cells in vitro, HGC27; type: cell-based; settings: HGC27 (Gastric cancer), 120 hours of drug action
Procedure: as §7, §8

Hep3B = assay: SRB method, proliferation of tumor cells in vitro, Hep3B; type: cell-based; settings: Hep3B (Liver cancer), 120 hours of drug action
Procedure: as §7, §8

HCC1806 = assay: SRB method, proliferation of tumor cells in vitro, HCC1806; type: cell-based; settings: HCC1806 (Breast cancer), 120 hours of drug action
Procedure: as §7, §8

NCI-H292 = assay: SRB method, proliferation of tumor cells in vitro, NCI-H292; type: cell-based; settings: NCI-H292 (Lung cancer), 120 hours of drug action
Procedure: as §7, §8

BT474 = assay: SRB method, proliferation of tumor cells in vitro, BT474; type: cell-based, human; settings: BT474 (Breast cancer), 120 hours of drug action
Procedure: as §7, §8
Breast cancer cells BT474 were used, and the corresponding inhibition rate (%) was calculated.

N87 = assay: SRB method, proliferation of tumor cells in vitro, N87; type: cell-based, human; settings: N87 (Gastric cancer), 120 hours of drug action
Procedure: as §7, §8

AGS = assay: SRB method, proliferation of tumor cells in vitro, AGS; type: cell-based; settings: AGS (Gastric cancer), 120 hours of drug action
Procedure: as §7, §8

[4] = specific activity in vitro
hairy cell leukemia = hairy cell leukemia patients; cited from earlier work
[5] = test system: metastatic renal cancer and multiple myeloma; settings: high-dose (500 μg/day) injection, patients; cited from earlier work
[6] = Avastin 10 mg/kg IV (first dose doubled)
[7] = PEGylated (PEG) interferon 0.1 mg/kg SC
[8] = PEGylated (PEG) interferon 1 mg/kg SC
[9] = PEGylated (PEG) interferon 10 mg/kg SC, 2 times a week, 6 times in total, D20
[10] = PEGylated (PEG) interferon 10 mg/kg SC

In the case of “Avastin: Bevacizumab injection, commercially available monoclonal antibody purchased from Roche Pharmaceuticals [reference compound]”, the “% T/C D 21” value [1, 6] is reported as 51%, the “Mean tumor volume D 21 SEM” value [1, 6] is reported as 561.1 ± 53.4 mm^3 and the “Tumor inhibition rate % D 21” value [1, 6] is reported as 49%. The “Mean tumor volume D 0 SEM” value [1, 6] was 115.7 ± 2.7 mm^3, the “% T/C D 17” value (human liver cancer Huh-7; [6]) was 60% and the “Mean tumor volume D 17 SEM” value (human liver cancer Huh-7; [6]) was 1791.6 ± 105.7 mm^3. The “Tumor inhibition rate % D 17” value (human liver cancer Huh-7; [6]) was 40% and the “Mean tumor volume D 0 SEM” value (human liver cancer Huh-7; [6]) was 122.7 ± 1.8 mm^3.

B1: PEGylated (PEG) interferon: recombinant human interferon α1b modified with a single PEG of about 20,000 Daltons; lyophilized powder injection, Shanghai Institute of Biological Products (protein, UniProt P01562 24-189, looked up)
Interferon alpha-1/13: CDLPETHSLDNRRTLMLLAQMSRISPSSCLMDRHDFGFPQEEFDGNQFQKAPAISVLHELIQQIFNLFTTKDSSAAWDEDLLDKFCTELYQQLNDLEACVMQEERVGETPLMNADSILAVKKYFRRITLYLTEKKYSPCAWEVVRAEIMRSLSLSTNLQERLRRKE
modifications: single 20 kDa PEG
notes: recombinant human interferon α1b modified with a single PEG of about 20,000 Daltons; lyophilized powder injection, Shanghai Institute of Biological Products
For B1, the “Inhibition rate (%)@100 μg/mL” value (HepG2) was 20.2%, the “Inhibition rate (%)@100 μg/mL” value (Huh-7) was 29.3% and the “Inhibition rate (%)@100 μg/mL” value (A549) was 33.7%. The “% T/C D 20” value [2, 7] was 34%, the “Mean tumor volume D 20 SEM” value [2, 7] was 422.2 ± 97.0 mm^3 and the “Tumor inhibition rate % D 20” value [2, 7] was 66%. For the same molecule, the “Mean tumor volume D 0 SEM” value [2, 7] was 91.2 ± 1.3 mm^3, the “tumors regressed partially (PR)” value ([2]; PEGylated (PEG) interferon 1 mg/kg SC, 2 times a week, 6 times in total, D20) was 3/6 and the “% T/C D 20” value [2, 8] was 2%. For the same molecule, the “Mean tumor volume D 20 SEM” value [2, 8] was 115.7 ± 26.1 mm^3, the “Tumor inhibition rate % D 20” value [2, 8] was 98% and the “Mean tumor volume D 0 SEM” value [2, 8] was 94.1 ± 4.3 mm^3. The “tumors regressed completely (CR)” value [2, 9] was 2/6, the “tumors regressed partially (PR)” value [2, 9] was 4/6 and the “tumors regressed partially (PR)” value ([2]; PEGylated (PEG) interferon 10 mg/kg SC, 6 times in total, end of the experiment (D60)) was 4/6. The “% T/C D 20” value [2, 10] was −56%, the “Mean tumor volume D 20 SEM” value [2, 10] was 41.4 ± 15.7 mm^3 and the “Tumor inhibition rate % D 20” value [2, 10] was 156%. For the same molecule, the “Mean tumor volume D 0 SEM” value [2, 10] was 94.8 ± 4.2 mm^3, the half-life (half-life in rats) was 13.98 h and the “Inhibition rate (%)@100 μg/mL” value (MCF-7) was 24.2%. The half-life [3] was 22.03 ± 3.32 h, the “Inhibition rate (%)@100 μg/mL” value (HGC27) was 52.3% and the “Inhibition rate (%)@100 μg/mL” value (Hep3B) was 58.4%. For the same molecule, the “Inhibition rate (%)@100 μg/mL” value (HCC1806) was 32.6%, the “Inhibition rate (%)@100 μg/mL” value (NCI-H292) was 41.5% and the “% T/C D 21” value [1, 7] was 81%. The “Mean tumor volume D 21 SEM” value [1, 7] was 817.1 ± 84.9 mm^3, the “Tumor inhibition rate % D 21” value [1, 7] was 19% and the “Mean tumor volume D 0 SEM” value [1, 7] was 112.7 ± 3.9 mm^3. For the same molecule, the “% T/C D 21” value [1, 8] was 68%, the “Mean tumor volume D 21 SEM” value [1, 8] was 712.4 ± 68.4 mm^3 and the “Tumor inhibition rate % D 21” value [1, 8] was 32%. For the same molecule, the “Mean tumor volume D 0 SEM” value [1, 8] was 117.4 ± 2.8 mm^3, the “% T/C D 21” value [1, 10] was 45% and the “Mean tumor volume D 21 SEM” value [1, 10] was 506.1 ± 33.0 mm^3. For the same molecule, the “Tumor inhibition rate % D 21” value [1, 10] was 55%, the “Mean tumor volume D 0 SEM” value [1, 10] was 112.3 ± 2.3 mm^3 and the “Inhibition rate (%)@100 μg/mL” value (BT474) was 19.6%. For the same molecule, the “Inhibition rate (%)@100 μg/mL” value (N87) was 32.5%, the “Inhibition rate (%)@100 μg/mL” value (AGS) was 44.0% and the “% T/C D 17” value (human liver cancer Huh-7; [7]) was 110%. The “Mean tumor volume D 17 SEM” value (human liver cancer Huh-7; [7]) was 3188.0 ± 282.5 mm^3, the “Tumor inhibition rate % D 17” value (human liver cancer Huh-7; [7]) was −10% and the “Mean tumor volume D 0 SEM” value (human liver cancer Huh-7; [7]) was 117.7 ± 2.0 mm^3. For the same molecule, the “% T/C D 17” value (human liver cancer Huh-7; [8]) was 107%, the “Mean tumor volume D 17 SEM” value (human liver cancer Huh-7; [8]) was 3110.6 ± 438.0 mm^3 and the “Tumor inhibition rate % D 17” value (human liver cancer Huh-7; [8]) was −7%. The “Mean tumor volume D 0 SEM” value (human liver cancer Huh-7; [8]) was 119.8 ± 2.6 mm^3, the “% T/C D 17” value (human liver cancer Huh-7; [10]) was 91% and the “Mean tumor volume D 17 SEM” value (human liver cancer Huh-7; [10]) was 2681.9 ± 435.7 mm^3. For the same molecule, the “Tumor inhibition rate % D 17” value (human liver cancer Huh-7; [10]) was 9%, the “Mean tumor volume D 0 SEM” value (human liver cancer Huh-7; [10]) was 123.8 ± 1.9 mm^3 and the “inhibitory effect on the growth of subcutaneous transplanted tumors” value (human liver cancer Huh-7; PEGylated (PEG) interferon 0.1, 1, 10 mg/kg, SC, 2 times a week, 5 times in total) was “no significant inhibitory effect”.

B2: ordinary interferon α1b: unmodified recombinant human interferon α1b, 166 amino acids, SEQ ID No.: 1 (protein, UniProt P01562 24-189, looked up)
Interferon alpha-1/13: CDLPETHSLDNRRTLMLLAQMSRISPSSCLMDRHDFGFPQEEFDGNQFQKAPAISVLHELIQQIFNLFTTKDSSAAWDEDLLDKFCTELYQQLNDLEACVMQEERVGETPLMNADSILAVKKYFRRITLYLTEKKYSPCAWEVVRAEIMRSLSLSTNLQERLRRKE
In the case of B2, the “specific activity relative to ordinary interferon α2a and 2b” value [4] is reported as 10%, the half-life (half-life in rats) is reported as 1.84 h and the half-life [3] is reported as 3.27 ± 1.48 h. The adverse reaction (hairy cell leukemia) was “only a short-term low-grade fever”, the effective rate (hairy cell leukemia) was 63.64% and the remission rate (hairy cell leukemia) was 36.36%. The “adverse reactions compared with other ordinary interferons” value [5] was “milder” and the therapeutic effect [5] was “certain therapeutic effect”.
